Values quoted from earlier work, collected in article PMC8508939.

Molecular target: FoxP1 forkhead domain (Homo sapiens) (UniProt Q9H334)

Kd: 27 µM
Substance: FoxP1 forkhead domain (from UniProt Q9H334)
